Measured values published in patent EP3689907A1.
Changes are numbered by the printed parent chain.

B1: PRO592 (scFv)
scFv: DIQMTQSPSSLSASVGDRVTITCQASESIYRYLSWYQQKPGKAPKLLIYLASTLTSGVPSRFSGSGSGTDFTLTISSLQPEDFATYYCQSNFGTASTTYYNTFGGGTKLTVLGGGGGSGGGGSGGGGSGGGGSEVQLVESGGGLVQPGGSLTLSCAASGFSFSGFYYMCWVRQAPGKGLEWIGCIDTGDGTTYYASWAKGRFTISRDNSKNTVYLQMNSLRAEDTAVYYCARDAAYGGYAYPAHGMDLWGPGTLVTVSS
B2: PRO571 (scFv)
scFv: B1 scFv with T152R, P251Q

How the values were obtained:
[1] = target: human IL-17A (human) (UniProt Q16552); assay: IL-17A/IL-17RA competitive ELISA: biotinylated hIL-17A preincubated with scFv, binding to coated hIL-17RA; reference secukinumab
[2] = target: human IL-17A (human) (UniProt Q16552); assay: cell-based or functional assay
[3] = target: human IL-17A (human) (UniProt Q16552); assay: IL-17A/IL-17RA competitive ELISA: biotinylated hIL-17A preincubated with scFv, binding to coated hIL-17RA
[4] = target: human IL-17A (human) (UniProt Q16552); assay: SPR (Biacore T200), direct setup: IL-17A amine-coupled to CM5 chip, scFv as analyte
[5] = target: human IL-17A (human) (UniProt Q16552); assay: SPR (Biacore T200), capture setup: biotinylated human IL-17A captured with Biotin-CAPture kit, scFv as analyte

Binder | rel. IC50 (IC50, secukinumab/IC50, Test Sample) [1] | Neutralization of IL17A in HT-29 assay, rel. IC50* (IC50, secukinumab/IC50, Test Sample) [2] | Potency in HT-29 assay, IC50 [ng/mL] [2] | Potency in HT-29 assay, rel. IC50* (IC50, secukinumab/IC50, Test Sample) [2] | IC50 [3] | Kd [4] | koff [4] | kon [4] | Kd [5] | koff [5] | kon [5]
B1 | 40.9 | 196 | 0.13 ng/mL | 196 | 0.9 ng/mL | 37.6 pM | 4.07e-05 s⁻¹ | 1.08e+06 M⁻¹ s⁻¹ | 367 pM | 0.000142 s⁻¹ | 387000 M⁻¹ s⁻¹
B2 | 22.9 | 191 | 0.1 ng/mL | 191 | 1.8 ng/mL | 40.3 pM | 4.55e-05 s⁻¹ | 1.13e+06 M⁻¹ s⁻¹ | 119 pM | 0.000144 s⁻¹ | 1.21e+06 M⁻¹ s⁻¹
